Assay results reported in patent publication US6379928.

Experiments:
Test in all cases: cell-based or functional assay
[1] = molecular target: chymosin polypeptide secreted by fungi transformed with pGRG1 (A. niger glucoamylase signal peptide fused to bovine prochymosin) (bovine) (UniProt P00794)
[2] = molecular target: chymosin polypeptide secreted by fungi transformed with pGRG3 (bovine preprochymosin under the glucoamylase promoter) (bovine) (UniProt P00794)
[3] = molecular target: chymosin polypeptide secreted by fungi transformed with pGRG2 (A. niger glucoamylase signal peptide and propeptide fused to bovine prochymosin) (bovine) (UniProt P00794)

pepstatin (peptide)
Chymosin Activity (µg/ml) of pGRG1 broth after preincubation with pepstatin (0.2 without pepstatin) [1]: 0.05 µg/ml
Chymosin Activity (µg/ml) of pGRG3 broth after preincubation with pepstatin (3 without pepstatin) [2]: 0.6 µg/ml
Chymosin Activity (µg/ml) of pGRG2 broth after preincubation with pepstatin (0.1 without pepstatin) [3]: 0 µg/ml
